± gives the uncertainty stated by the source.

A short description of this series: amyloid nucleation score (Sup35N fusion, yeast selection) (log enrichment); library NNK2; higher = more nucleation; inactive = no reads after selection. The method, boiled down:
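The nucleation score is the log enrichment of output over input reads, calculated with DiMSum and centred on the mode score of non-aggregating sequences. Sequences with under 100 input reads were excluded. Reads came from Illumina sequencing of plasmid inserts from psi-negative yeast expressing Sup35N fused to peptides of 20 random codons, induced 24 hours with 100 μM copper sulfate and grown 7 days at 30°C without adenine and uracil.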
As to SISLLMICCDL, the amyloid nucleation score stood at 8.511 ± 0.04.
The same measure for CVSWRYFMFPCLVSLEMSSS: 3.71 ± 0.085; for HIEVSACTRFLILNIHLRII: -1.46 ± 0.53.
For SPIPFPYMYVYSMWCDTLTR, the amyloid nucleation score came to 0.505 ± 0.3.
The same measure for LTDSKSALRLAMR: 4.48 ± 0.039; for REKVVKEPRTDESFVGRGGS: 0.724 ± 0.28.
The same measure for LISGRMHNVCEPGAKSRTLR: 0.76 ± 0.18.
The same measure for KWSYSPVGKHYLYMMWDGHS: 0.409 ± 0.3; for RLPFYVW: “inactive”.
In turn, MSGICPDQSSLYIEDTSIWL returned an amyloid nucleation score of 2.96 ± 0.068.
The same measure for LGFMNCSLMHAGRVGPREHF: 2.72 ± 0.13.
The same measure for RCTKA: 0.341 ± 0.21; for AMYICLRVIGSSGRSVMASK: 0.782 ± 0.16.
The figure for QGVSVLFGVSATLY is 1.19 ± 0.26.
Take NWGFISVLVALPWVWGLRPG: the amyloid nucleation score was -0.387 ± 0.42.
The same measure for VYCVDIFCTESLVCPTQTWG: 6.055 ± 0.06; for FGESTSEGYA: 3.33 ± 0.12.
The figure for KSQVPPNFWVVMCLTEFSVV is 5.628 ± 0.046; for TIHRVVWCLL it is -0.645 ± 0.56.
The figure for ACCFESSGIQLEVRGGGAWG is 1.58 ± 0.27; for SVGVTVSRVASREGSSRSRA it is 0.573 ± 0.36; for FSPHHEPTSRG it is 0.426 ± 0.45.
Turning to PADPNCIFVIS, the amyloid nucleation score is -1.25 ± 0.44.
The figure for RSYIRFGNYVHYDQLWLFGG is 3.04 ± 0.12; for NQVSIIHWWAAYDYWSPM it is -0.163 ± 0.6.
The same measure for WTVGRRELGCM: “inactive”.
The same measure for ECGVLFV: 0.827 ± 0.6; for IQGFGLKLVEIYWEARQLVH: “inactive”.
In the case of SCLVVLHIIAVISMVFSSIL, the amyloid nucleation score result was “inactive”.
The figure for RIFTFLSVSHPN is 4.53 ± 0.053; for KLGRCRRKFMLYGCNLVQSR it is -0.133 ± 0.33.
LLKLNGILVCLDRGVMPHDS gave an amyloid nucleation score of 2.57 ± 0.092.
The entry for VFGSVADMHM is “inactive”; for YYVLWSGVGIVMDSAYDTIC it is -0.017 ± 1; for LISEVALGFAPMKIVRGFLD it is -0.284 ± 0.56.
Consider FSLLTTFSLTNGGPAFLMIR, for which the amyloid nucleation score result is “inactive”.
The same measure for NLTYWLVLLRFKKLTDGEHE: -0.259 ± 0.3; for QYFFNMMLMMDMLSLGGLSY: -0.063 ± 0.45.
Turning to VAEYGLENDWFLHWQICMNS, the amyloid nucleation score was -0.618 ± 0.48.
The figure for FWVPSLSTYLSFFGKFRDWA is -0.347 ± 0.5; for YSGDRDTVLYHCTRVGAESV it is 0.109 ± 0.63; for MGFIRINWLNSVLRSPPTHR it is 5.527 ± 0.044.
The figure for KLPAVNLVVMREWKALRFGV is -0.48 ± 0.33; for PSLMNEVRMGVQCLLFST it is 0.108 ± 0.23.
The figure for SLSRGLC is 0.404 ± 0.45.
In turn, FNLMSMIRNRH yielded an amyloid nucleation score of -0.548 ± 0.79.
CFNVV returned an amyloid nucleation score of 0.43 ± 0.49.
The same measure for RNGLRTLEQRRSKSVWEMSW: 0.969 ± 0.16; for WMLCLDLKANKMCLMVISME: -1.32 ± 0.76.
The entry for YNVDDCSHRDRFIDNRDSEC is “inactive”; for DHLNGASRRMWLLTYFTVFE it is “inactive”.
For VGSSRFLRDGVTRGLSMSGS, the amyloid nucleation score was -1.07 ± 0.41.
As to TVFPMREIEVLFDSIWYGFN, the amyloid nucleation score was found to be 1.71 ± 0.096.
The entry for YQLIGFTKVIRFHSVELIEP is “inactive”.
The same measure for PVIRRLEFGWQNASYG: -0.564 ± 0.76; for SWLYLPWLLLQARILHR: -0.197 ± 0.24; for LVGRRWVFTDCKGFRASVNF: “inactive”.
The figure for ATYNCVHRWGIFTSAYGSKC is -0.653 ± 0.56; for AYSIHPLNKGVKVSYRLAGH it is 0.306 ± 0.2.
On to GRTCVRRGQAE, for which the amyloid nucleation score stood at 0.909 ± 0.47.
The figure for GGKTYNSTVVDVCDHAFCDY is -0.924 ± 1.1; for YGTWKVRKCGLSIFGVGGPD it is -0.303 ± 0.63; for SPNRQLVKFYFQTTYMVSRL it is 3.52 ± 0.071.
The same measure for RVSMFKDLKYNGSYSWNSHG: -1.22 ± 0.41; for FQDDDDPFFCVFAYFIGFFA: -0.983 ± 1.1.
GRVISCVGLTAFNKAVGSCR registered an amyloid nucleation score of 0.626 ± 0.42.
In turn, KIRTNALYLL returned an amyloid nucleation score of -0.298 ± 0.29.
In turn, TAAPSEVMPIMALRPPKESS gave an amyloid nucleation score of -0.541 ± 0.79.
For GGGHMFFAGQ, the amyloid nucleation score is -1.28 ± 1.1.
The same measure for IRIACSGLSDRFMNRVHLHS: -0.017 ± 0.46; for EFGYFYLAMKISTSRYKQNY: 1.41 ± 0.14.
Consider HVLTAGNHVGSVMNWHANEM, for which the amyloid nucleation score result was “inactive”.
The figure for FGISSNATRDWRLFDHRAVG is 0.637 ± 0.47; for SDLFVNICCRPNRMGV it is -0.521 ± 0.48; for RSTTM it is “inactive”.
NIWRRSSSV: the amyloid nucleation score result is “inactive”.
The figure for DHHDTTHYYIWVDKYKYLV is -0.216 ± 0.64; for FKVLVSLALSRECS it is -0.75 ± 0.48.
The same measure for HFDSYNRNSMSSRPSVGILS: -0.441 ± 1.1; for GYNHFFTNDIISRGFPVSFK: “inactive”.
The same measure for FVSEINVTSGD: 0.547 ± 0.42; for CMGFSSLFFQGWVVIDCLW: -1.1 ± 0.76; for KSCSEV: -0.047 ± 0.35.
As for GLAMFKYIMAIVRNF, the amyloid nucleation score is -0.855 ± 0.37.
The same measure for VPGRYFSQELVFTLFLGMAK: -1.43 ± 0.61; for NPTHLLPHTEIGVLDTCAF: 0.265 ± 1.1.
As to PRTISSSRLMWRYVSYLVIV, the amyloid nucleation score entry is “inactive”.
The figure for AYGKLSE is -0.68 ± 0.5.
The figure for FRVWSFFLNF is 3.12 ± 0.1; for RWIATGSGRPETHVILESSG it is “inactive”.
The same measure for TIFWLTISCQRYRD: 1.46 ± 0.13; for VLVGVEWFV: 0.318 ± 0.38; for FNYSPLRFCTNDC: 1.63 ± 0.31.
In turn, PGSNL came in with an amyloid nucleation score of -0.037 ± 0.42.
On to CLWVSMDGHSFWRKFNAVI, for which the amyloid nucleation score result was “inactive”.
The same measure for YIYLNEKFCITYMRESWNCC: 0.651 ± 0.39; for TIAPGRRYENVNKGCERRFI: -1.76 ± 0.76; for AVKCVVEVTPWLDVKIKSFY: -0.735 ± 0.55.
The figure for SVNYFLRGHKPRVNVVPSVE is 5.119 ± 0.046.
The same measure for EAFNTSCLVFLRNDWYWSGF: “inactive”; for SYDSPPSEHLVPVAQSISVP: 1.17 ± 0.44.
VRFYVCLFLRNEMKVGRMTW came in with an amyloid nucleation score of 3.86 ± 0.064.
The same measure for ANLSRCVELMSRPQSVD: 1 ± 0.15.
The same measure for NGVLRDHWTMAQTCAGVECS: -0.403 ± 1.1; for MSQGSKIRVTWARSGGTRRL: 3.08 ± 0.15.
The same measure for KTLKNEFVDMNQMIYNY: -0.489 ± 0.79; for SVYREWLPSSSRVWCMSLSG: -0.317 ± 0.63; for AAFVAYLAYFLMFSSCFCIY: “inactive”.
Take WVGAVKFFRSVKRQMSIYLE: the amyloid nucleation score result is “inactive”.
The figure for SLAFNPISCAANLPFFHIQF is 0.29 ± 0.77; for NYIESFMHSQGCNPFQDSFM it is 3 ± 0.12; for YYCFHLKEYCRWRSANPHFK it is -0.073 ± 1.
The same measure for IHIWGSLSIDIEFVCGMKAR: 1.04 ± 0.56.
NFSDWIYVFSEVPMLVRCRW yielded an amyloid nucleation score of 0.261 ± 0.42.
The same measure for RISCSMVKRSYFRHVLVCEI: 1.74 ± 0.26; for WWTVKLLMSEVVFRWELEYI: 5.735 ± 0.04; for RFWIEVEVYDVISFVYLERW: 0.428 ± 0.34.
The figure for WVTIALYCNKLIVTVRGGIG is -0.029 ± 1.1; for LYGTE it is 0.244 ± 0.2; for RDGKDRAYCGW it is 0.483 ± 0.5.
The same measure for STMFSVNFST: “inactive”.
In the case of FYFVSSRSIDGVFFRKILNS, the amyloid nucleation score result was “inactive”.
The same measure for NLVLRPR: “inactive”; for LSYNQD: -0.581 ± 0.64.
The entry for KSTLANHFTVLIGDTADLHG is “inactive”.
Regarding RFNIFVLLFLVPEVGLHMVV, the amyloid nucleation score entry was “inactive”.
EGTIWRVSW displayed an amyloid nucleation score of 0.392 ± 0.56.
Take SCEVVSRKL: the amyloid nucleation score turned out to be 1.08 ± 0.22.
The figure for NSWWTVLFRFYKALSLPRAR is -0.839 ± 0.78.
The figure for AVGNMDVQEGFTTSRADRGL is 0.913 ± 0.21; for KLYFCYLEI it is -1.25 ± 1.1; for SNPSVNLCRWIDACNSDLIT it is 0.165 ± 1.
The same measure for LNYDNFE: “inactive”.
TYLNLLSNAMNVAWFS gave an amyloid nucleation score of 2.83 ± 0.19.
The same measure for CYSMSRVVSNGEKHYD: 0.675 ± 0.4.
The figure for VRILYGS is 6.06 ± 0.082.
With NGRTRCNPFLFGFKGRPGEC, the amyloid nucleation score is -1.34 ± 1.1.
The figure for YPQGVGSDLTS is 0.953 ± 0.19.

Values taken from the supplement of paper PMC12042874.
